Reference: PMC9976613 (Journal of structural biology, 2018)

Target: the molecule itself
Assay: crystal structure

B1: His6-DcrBΔ37 (domain or fragment, Salmonella enterica, UniProt Q7CPJ3 38-185, looked up)
chain: ASGQPISLMDGKLSFSLPADMTDQSGKLGTQANNMHVYSDPTGQKAVIVIVGDNTDEALPVLANRLLEQQRSRDPQLQVVTNKSIELKGHTLQQLDSIISAKGQTAYSSIVLGKVDNQLLTIQVTLPADNQQKAQTTAENIINTLVIK
binding result: binds
